Measured values reported in PMC3601010 (BMC Biochemistry, 2013).
Ends that are not written are not given here.

Key:
[1] = target: T1, α-thrombin (UniProt P00734 364-622); assay: ELISA; competition: HCII 1-75 immobilised on microtiter wells; competitor peptides added with 5 nM α-thrombin; ratio of absorbance with and without competitor; IC50 by linear regression of log-transformed plots; conditions: both partners purified
[2] = target: T1, α-thrombin; assay: cell-based or functional assay
[3] = target: T1, α-thrombin; assay: SPR; competition: BIAcore X, 25°C; biotinylated HCII 1-75 on streptavidin-coated chip; peptides combined with 250 nM thrombin immediately before flowing over the chip; Ki from IC50 and the KD of 340 nM; conditions: both partners purified

B1: HCII 54-75 (synthetic peptide containing residues 54-75 of human HCII and a nonapeptide N-terminal tag) (peptide)
chain: GEEDDDYLDLEKIFSEDDDYID
modifications: not fully specified (N-terminus); ends and bridges not checked; also: nonapeptide N-terminal tag, unmodified amino terminus
[1]
  IC50: 110 µM
[2]
  fold reduction of the apparent second-order rate constant of inhibition of 14 nM thrombin by 140 nM plasma-derived HCII with 55 μg/mL standard heparin, 250 μM peptide (Figure 5A): 1.6 fold
  fold reduction of the apparent second-order rate constant of inhibition of thrombin by plasma-derived HCII with 1.4 μM dermatan sulfate, 250 μM peptide (Figure 5B): 1.6 fold
[3]
  Ki: 8.5 µM
  Ki of equimolar HCII 54-75 and HCII 1-53: 13 µM
